For one series, the target named is T1, Rv1044 (Mycobacterium tuberculosis (H37Rv), UniProt P96357 1-207).
T1 sequence: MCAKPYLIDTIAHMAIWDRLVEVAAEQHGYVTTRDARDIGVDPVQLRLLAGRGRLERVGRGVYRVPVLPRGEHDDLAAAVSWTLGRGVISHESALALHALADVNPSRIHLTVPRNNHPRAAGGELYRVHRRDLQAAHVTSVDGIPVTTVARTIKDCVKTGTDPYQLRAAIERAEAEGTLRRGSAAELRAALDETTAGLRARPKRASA
The series is described as follows: EMSA. Particulars: protein: recombinant; tags: His6-SUMO removed by SENP; untagged; chain copies: 2; label: 5' 6-FAM on strand 2; blunt. In general terms: In EMSA bound probe runs differently from free probe, usually more slowly.

Series [1] addresses T2, Rv2827c (Mycobacterium tuberculosis (H37Rv), UniProt P71625 1-295).
T2 sequence: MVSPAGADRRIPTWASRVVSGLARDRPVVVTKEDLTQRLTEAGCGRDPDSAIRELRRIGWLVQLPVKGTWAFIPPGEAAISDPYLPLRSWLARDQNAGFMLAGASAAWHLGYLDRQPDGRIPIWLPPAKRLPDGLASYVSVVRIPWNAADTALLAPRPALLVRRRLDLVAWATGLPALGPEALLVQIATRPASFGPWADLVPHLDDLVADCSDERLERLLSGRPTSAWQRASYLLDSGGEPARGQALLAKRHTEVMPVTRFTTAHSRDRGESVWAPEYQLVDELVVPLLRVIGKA
As to the kind of experiment: EMSA. Conditions: protein: recombinant; tags: His6-SUMO removed by SENP; untagged; label: 5' 6-FAM on strand 2; blunt.

Series [2] has as its target T2, Rv2827c. As to the kind of experiment: EMSA; weakly negative co-operativity. Conditions: protein: recombinant; tags: His6-SUMO removed by SENP; untagged; label: 5' 6-FAM on strand 2; blunt.
Series [3] has as its target T2, Rv2827c. As to the kind of experiment: EMSA; two binding events; not co-operative. Conditions: protein: recombinant; tags: His6-SUMO removed by SENP; untagged; label: 5' 6-FAM on strand 2; blunt.

B1: Prv1044 -1 to -71 WT (TRB1086) (dsDNA)
DNA 1: AACTAGGCGCGCCTAGCCTGGACGAGTCCCCGGGCCGACATTCGCCCGAGGCCTTGGCCTCCATCACCTAAAAGCTTTTGTCAGTGCGCA
DNA 2: TGCGCACTGACAAAAGCTTTTAGGTGATGGAGGCCAAGGCCTCGGGCGAATGTCGGCCCGGGGACTCGTCCAGGCTAGGCGCGCCTAGTT
In the case of B1, the binding result in the series with Rv1044 is recorded as “no binding”.

B2: PabiEi -1 to -71 WT (IR1-IR2, TRB1061) (dsDNA)
DNA 1: AAAAGAAAATGTTGCTTTTATACCACAAATATTGTAAAATTGTAGTGTAAAAGCAACAAGTGGGGGGCCGTAAGCTTTTGTCAGTGCGCA
DNA 2: TGCGCACTGACAAAAGCTTACGGCCCCCCACTTGTTGCTTTTACACTACAATTTTACAATATTTGTGGTATAAAAGCAACATTTTCTTTT
B2: in the series with Rv2827c [1], the binding result was “no binding”.

B3: Prv1044 -61 to -131 WT (TRB1102) (dsDNA)
DNA 1: GTATCTGCGACAAGGGCAGCGTCGATGCCTCGACATGCAGAGTCGGTGTTCGCTTCACGCGAACTAGGCGCAAGCTTTTGTCAGTGCGCA
DNA 2: TGCGCACTGACAAAAGCTTGCGCCTAGTTCGCGTGAAGCGAACACCGACTCTGCATGTCGAGGCATCGACGCTGCCCTTGTCGCAGATAC
On to B3, for which the binding result in the series with Rv1044 is listed as “no binding”.

B4: Prv2827c -61 to -131 WT (IR1-IR2, TRB1106) (dsDNA)
DNA 1: CAGGGCACTTGAGTTTGGAACGGGTTTCGTACTGTCACTGACCGAAGCCCGTTCCTAAATCAAGTGATTTCAAGCTTTTGTCAGTGCGCA
DNA 2: TGCGCACTGACAAAAGCTTGAAATCACTTGATTTAGGAACGGGCTTCGGTCAGTGACAGTACGAAACCCGTTCCAAACTCAAGTGCCCTG
In the case of B4, the binding result was “binds” in the series with Rv2827c [2] and “no binding” with Rv1044.

B5: Prv2827c -1 to -71 WT (IR3-IR4, TRB1104) (dsDNA)
DNA 1: CAAGTGATTTCTTGAGTTTGAACATTGTTGCGTACAGATATAGTATAGTTTCCGGTGTGAATTCAAGTTCGAAGCTTTTGTCAGTGCGCA
DNA 2: TGCGCACTGACAAAAGCTTCGAACTTGAATTCACACCGGAAACTATACTATATCTGTACGCAACAATGTTCAAACTCAAGAAATCACTTG
Consider B5, for which the binding result with Rv2827c [3] is given as “binds”; in the series with Rv1044 it was “no binding”.
